Results on 125 sequences are retold here after the supplement of paper PMC9112550, “Optimization of the antimicrobial peptide Bac7 by deep mutational scanning” (BMC Biology, 2022).
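Also: peptides expressed intracellularly from a pBAD plasmid library in pooled LB shake-flask culture, induced with 0.3% L-arabinose, DNA abundance read by NGS, three biological replicates, DESeq2 with apeglm shrinkage.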

For the data set, the system named is Escherichia coli TOP10. Kind of data set: shrunken log2 fold change of peptide-encoding DNA abundance (4.5 h post-induction vs induction); higher = less antimicrobial activity (less host growth inhibition). Conditions: time post-induction: 4.5 h; library: site-saturation at positions 5, 18, 19, 20.
RRIRTRPPRLPRPRPRPIDDPRP: the “shrunken log2 fold change” value was -0.498.

For RRIRVRPPRLPRPRPRPWPRPRP, the “shrunken log2 fold change” value worked out at 0.183.

Turning to RRIRCRPPRLPRPRPRPIGRPRP, the “shrunken log2 fold change” value is -0.0502.

For the sequence RRIRRRPPRLPRPRPRPDWMPRP, the “shrunken log2 fold change” value was found to be 0.0919.

For the sequence RRIRTRPPRLPRPRPRPKCCPRP, the “shrunken log2 fold change” value is -0.133.

For RRIRYRPPRLPRPRPRPTYVPRP, the “shrunken log2 fold change” value was -0.0567.

For the sequence RRIRKRPPRLPRPRPRPWAIPRP, the “shrunken log2 fold change” value came to 0.14.

As to RRIRCRPPRLPRPRPRPPQWPRP, the “shrunken log2 fold change” value was found to be 0.446.

Regarding RRIRIRPPRLPRPRPRPEPHPRP, the “shrunken log2 fold change” value was -0.0648.

Take RRIRGRPPRLPRPRPRPMHMPRP: the “shrunken log2 fold change” value was found to be 0.347.

On to RRIRNRPPRLPRPRPRPREFPRP, for which the “shrunken log2 fold change” value was found to be 0.306.

Regarding RRIRWRPPRLPRPRPRPNRHPRP, the “shrunken log2 fold change” value came out at 0.0506.

Take RRIRARPPRLPRPRPRPAHMPRP: the “shrunken log2 fold change” value is -0.114.

On to RRIRARPPRLPRPRPRPPSMPRP, for which the “shrunken log2 fold change” value was 0.425.

On to RRIRFRPPRLPRPRPRPGGEPRP, for which the “shrunken log2 fold change” value worked out at 0.271.

With RRIRMRPPRLPRPRPRPVTHPRP, the “shrunken log2 fold change” value was determined as 0.0493.

On to RRIRCRPPRLPRPRPRPILAPRP, for which the “shrunken log2 fold change” value came out at 0.127.

For RRIRRRPPRLPRPRPRPKCTPRP, the “shrunken log2 fold change” value is -0.373.

Consider RRIRCRPPRLPRPRPRPRPGPRP, for which the “shrunken log2 fold change” value came to 0.733.

On to RRIRVRPPRLPRPRPRPCFFPRP, for which the “shrunken log2 fold change” value is -0.137.

As to RRIRPRPPRLPRPRPRPGMVPRP, the “shrunken log2 fold change” value came to 0.268.

Consider RRIRARPPRLPRPRPRPWMIPRP, for which the “shrunken log2 fold change” value was -0.0822.

Take RRIRTRPPRLPRPRPRPANLPRP: the “shrunken log2 fold change” value was -0.0546.

On to RRIRFRPPRLPRPRPRPFTMPRP, for which the “shrunken log2 fold change” value is -0.817.

Turning to RRIRFRPPRLPRPRPRPVETPRP, the “shrunken log2 fold change” value is -0.0497.

As for RRIRGRPPRLPRPRPRPKAGPRP, the “shrunken log2 fold change” value turned out to be 1.17.

Consider RRIRNRPPRLPRPRPRPDPRPRP, for which the “shrunken log2 fold change” value was 0.562.

For the sequence RRIRCRPPRLPRPRPRPQEQPRP, the “shrunken log2 fold change” value stood at 0.0612.

In the case of RRIRLRPPRLPRPRPRPTPNPRP, the “shrunken log2 fold change” value came to 0.403.

For RRIRYRPPRLPRPRPRPHKEPRP, the “shrunken log2 fold change” value turned out to be 0.103.

As to RRIRYRPPRLPRPRPRPIMRPRP, the “shrunken log2 fold change” value is 0.0675.

In the case of RRIRWRPPRLPRPRPRPCPVPRP, the “shrunken log2 fold change” value was -0.249.

Take RRIRFRPPRLPRPRPRPPYAPRP: the “shrunken log2 fold change” value is 0.0335.

Turning to RRIRFRPPRLPRPRPRPSELPRP, the “shrunken log2 fold change” value is -0.0817.

For RRIRNRPPRLPRPRPRPCTMPRP, the “shrunken log2 fold change” value was -0.199.

Regarding RRIRYRPPRLPRPRPRPMQHPRP, the “shrunken log2 fold change” value was -0.17.

For RRIRKRPPRLPRPRPRPYCAPRP, the “shrunken log2 fold change” value was -0.254.

With RRIRMRPPRLPRPRPRPPWQPRP, the “shrunken log2 fold change” value is 0.763.

With RRIRGRPPRLPRPRPRPEFEPRP, the “shrunken log2 fold change” value is 0.612.

As for RRIRGRPPRLPRPRPRPEGPPRP, the “shrunken log2 fold change” value is -0.0198.

As for RRIRFRPPRLPRPRPRPKLYPRP, the “shrunken log2 fold change” value is -0.481.

For the sequence RRIRTRPPRLPRPRPRPSDDPRP, the “shrunken log2 fold change” value was -0.182.

Consider RRIRCRPPRLPRPRPRPQSRPRP, for which the “shrunken log2 fold change” value was -0.016.

For RRIRGRPPRLPRPRPRPDYIPRP, the “shrunken log2 fold change” value is -0.144.

With RRIRGRPPRLPRPRPRPEQSPRP, the “shrunken log2 fold change” value is 1.05.

For RRIRLRPPRLPRPRPRPPDRPRP, the “shrunken log2 fold change” value came to 0.467.

Take RRIRNRPPRLPRPRPRPIMCPRP: the “shrunken log2 fold change” value is -0.148.

Take RRIRVRPPRLPRPRPRPWSVPRP: the “shrunken log2 fold change” value was -0.0304.

RRIRWRPPRLPRPRPRPPFWPRP: the “shrunken log2 fold change” value amounted to 0.836.

As for RRIRWRPPRLPRPRPRPRDDPRP, the “shrunken log2 fold change” value was determined as 0.341.

Turning to RRIRPRPPRLPRPRPRPKAPPRP, the “shrunken log2 fold change” value was found to be 0.171.

As to RRIRGRPPRLPRPRPRPMPKPRP, the “shrunken log2 fold change” value was 0.884.

RRIRMRPPRLPRPRPRPEDRPRP: the “shrunken log2 fold change” value is -0.0526.

In the case of RRIRPRPPRLPRPRPRPKVIPRP, the “shrunken log2 fold change” value was -0.172.

As for RRIRHRPPRLPRPRPRPSFGPRP, the “shrunken log2 fold change” value is -0.561.

For RRIRFRPPRLPRPRPRPSWPPRP, the “shrunken log2 fold change” value was -0.0802.

For the sequence RRIRERPPRLPRPRPRPMVSPRP, the “shrunken log2 fold change” value was -0.0769.

On to RRIRPRPPRLPRPRPRPLVIPRP, for which the “shrunken log2 fold change” value is -0.509.

Regarding RRIRVRPPRLPRPRPRPMQIPRP, the “shrunken log2 fold change” value was -0.0185.

In the case of RRIRGRPPRLPRPRPRPTYKPRP, the “shrunken log2 fold change” value was found to be 0.937.

On to RRIRPRPPRLPRPRPRPMVYPRP, for which the “shrunken log2 fold change” value is -0.228.

On to RRIRKRPPRLPRPRPRPEMPPRP, for which the “shrunken log2 fold change” value stood at 0.668.

As to RRIRIRPPRLPRPRPRPGGNPRP, the “shrunken log2 fold change” value is -0.0373.

Consider RRIRERPPRLPRPRPRPIFKPRP, for which the “shrunken log2 fold change” value was 0.138.

For the sequence RRIRPRPPRLPRPRPRPYNDPRP, the “shrunken log2 fold change” value is -0.723.

Regarding RRIRFRPPRLPRPRPRPHQGPRP, the “shrunken log2 fold change” value is -0.0419.

RRIRERPPRLPRPRPRPVQSPRP: the “shrunken log2 fold change” value was -0.015.

For the sequence RRIRWRPPRLPRPRPRPPSMPRP, the “shrunken log2 fold change” value amounted to 0.405.

For RRIRERPPRLPRPRPRPHIDPRP, the “shrunken log2 fold change” value is -0.34.

In the case of RRIRARPPRLPRPRPRPSKVPRP, the “shrunken log2 fold change” value was -0.0951.

On to RRIRERPPRLPRPRPRPINNPRP, for which the “shrunken log2 fold change” value was -0.944.

Regarding RRIRCRPPRLPRPRPRPYCQPRP, the “shrunken log2 fold change” value is -0.219.

In the case of RRIRYRPPRLPRPRPRPKEQPRP, the “shrunken log2 fold change” value is 0.00489.

Regarding RRIRCRPPRLPRPRPRPTCCPRP, the “shrunken log2 fold change” value is -0.354.

For RRIRGRPPRLPRPRPRPNHPPRP, the “shrunken log2 fold change” value stood at 0.0349.

As for RRIRSRPPRLPRPRPRPMFYPRP, the “shrunken log2 fold change” value was -0.544.

Consider RRIRMRPPRLPRPRPRPVKPPRP, for which the “shrunken log2 fold change” value came to 0.202.

Regarding RRIRFRPPRLPRPRPRPETPPRP, the “shrunken log2 fold change” value worked out at 0.752.

For the sequence RRIRCRPPRLPRPRPRPWPYPRP, the “shrunken log2 fold change” value is -0.115.

Regarding RRIRMRPPRLPRPRPRPYLIPRP, the “shrunken log2 fold change” value was -0.463.

With RRIRYRPPRLPRPRPRPLGSPRP, the “shrunken log2 fold change” value was -0.651.

Turning to RRIRIRPPRLPRPRPRPESGPRP, the “shrunken log2 fold change” value is -0.135.

On to RRIRMRPPRLPRPRPRPSSPPRP, for which the “shrunken log2 fold change” value turned out to be 0.16.

For RRIRWRPPRLPRPRPRPIENPRP, the “shrunken log2 fold change” value is 0.0363.

For the sequence RRIRVRPPRLPRPRPRPIPRPRP, the “shrunken log2 fold change” value came out at 0.0796.

For RRIRCRPPRLPRPRPRPKPYPRP, the “shrunken log2 fold change” value was 0.179.

On to RRIRCRPPRLPRPRPRPHIPPRP, for which the “shrunken log2 fold change” value is -0.245.

Turning to RRIRFRPPRLPRPRPRPRVNPRP, the “shrunken log2 fold change” value is -0.116.

Consider RRIRLRPPRLPRPRPRPWHCPRP, for which the “shrunken log2 fold change” value is -0.0686.

Take RRIRVRPPRLPRPRPRPMDMPRP: the “shrunken log2 fold change” value was -0.946.

Turning to RRIRMRPPRLPRPRPRPRVHPRP, the “shrunken log2 fold change” value amounted to 0.446.

RRIRHRPPRLPRPRPRPNKKPRP: the “shrunken log2 fold change” value is -0.0825.

On to RRIRPRPPRLPRPRPRPLNIPRP, for which the “shrunken log2 fold change” value is -0.809.

Turning to RRIRHRPPRLPRPRPRPGMCPRP, the “shrunken log2 fold change” value is -0.493.

In the case of RRIRQRPPRLPRPRPRPQQMPRP, the “shrunken log2 fold change” value was determined as 0.156.

As for RRIRPRPPRLPRPRPRPFSPPRP, the “shrunken log2 fold change” value is -0.266.

Take RRIRLRPPRLPRPRPRPQMKPRP: the “shrunken log2 fold change” value was -0.0293.

Consider RRIRMRPPRLPRPRPRPMNLPRP, for which the “shrunken log2 fold change” value came to 0.11.

With RRIRHRPPRLPRPRPRPDPFPRP, the “shrunken log2 fold change” value was -0.409.

On to RRIRARPPRLPRPRPRPQLCPRP, for which the “shrunken log2 fold change” value is 0.249.

With RRIRARPPRLPRPRPRPQQYPRP, the “shrunken log2 fold change” value is -0.203.

On to RRIRCRPPRLPRPRPRPAMRPRP, for which the “shrunken log2 fold change” value stood at 0.509.

As to RRIRDRPPRLPRPRPRPDNGPRP, the “shrunken log2 fold change” value is -0.223.

Regarding RRIRDRPPRLPRPRPRPLWLPRP, the “shrunken log2 fold change” value stood at 0.399.

In the case of RRIRARPPRLPRPRPRPRENPRP, the “shrunken log2 fold change” value came to 1.06.

For the sequence RRIRQRPPRLPRPRPRPVNLPRP, the “shrunken log2 fold change” value is -0.014.

In the case of RRIRMRPPRLPRPRPRPENMPRP, the “shrunken log2 fold change” value is 0.0343.

On to RRIRTRPPRLPRPRPRPCCWPRP, for which the “shrunken log2 fold change” value came out at 0.0822.

For the sequence RRIRNRPPRLPRPRPRPMYIPRP, the “shrunken log2 fold change” value was -1.03.

In the case of RRIRNRPPRLPRPRPRPFKAPRP, the “shrunken log2 fold change” value worked out at 0.0407.

As for RRIRGRPPRLPRPRPRPVDRPRP, the “shrunken log2 fold change” value stood at 0.297.

In the case of RRIRPRPPRLPRPRPRPTWNPRP, the “shrunken log2 fold change” value was found to be 0.00306.

For RRIRGRPPRLPRPRPRPWSIPRP, the “shrunken log2 fold change” value is -0.108.

Regarding RRIRPRPPRLPRPRPRPVGKPRP, the “shrunken log2 fold change” value is -0.00576.

Regarding RRIRYRPPRLPRPRPRPQKNPRP, the “shrunken log2 fold change” value was -0.555.

As for RRIRARPPRLPRPRPRPVEEPRP, the “shrunken log2 fold change” value was determined as 1.03.

As to RRIRPRPPRLPRPRPRPMEEPRP, the “shrunken log2 fold change” value is -0.0433.

In the case of RRIRYRPPRLPRPRPRPGQIPRP, the “shrunken log2 fold change” value is -0.0348.

Consider RRIRKRPPRLPRPRPRPCDTPRP, for which the “shrunken log2 fold change” value came to 0.015.

Consider RRIRFRPPRLPRPRPRPVFIPRP, for which the “shrunken log2 fold change” value was -0.811.

For the sequence RRIRLRPPRLPRPRPRPPGGPRP, the “shrunken log2 fold change” value is 0.664.

As for RRIRIRPPRLPRPRPRPWMPPRP, the “shrunken log2 fold change” value was -0.131.

Regarding RRIRSRPPRLPRPRPRPNKCPRP, the “shrunken log2 fold change” value was -0.42.

As for RRIRRRPPRLPRPRPRPHCQPRP, the “shrunken log2 fold change” value was found to be 0.17.

In the case of RRIRFRPPRLPRPRPRPFFCPRP, the “shrunken log2 fold change” value was -0.206.
